B1: Example 68 (peptide)
peptide: Y[Aib]EGTFISDYSI[αMeL]LDKK([AEEA-AEEA-γGlu-C20 diacid])HQ[Aib]DFVEYLLEAGPSSGAPPPS-NH2
modifications: N-terminus assumed
SMILES: CC[C@H](C)[C@H](NC(=O)[C@H](Cc1ccccc1)NC(=O)[C@@H](NC(=O)CNC(=O)[C@H](CCC(=O)O)NC(=O)C(C)(C)NC(=O)[C@@H](N)Cc1ccc(O)cc1)[C@@H](C)O)C(=O)N[C@@H](CO)C(=O)N[C@@H](CC(=O)O)C(=O)N[C@@H](Cc1ccc(O)cc1)C(=O)N[C@@H](CO)C(=O)N[C@H](C(=O)N[C@@](C)(CC(C)C)C(=O)N[C@@H](CC(C)C)C(=O)N[C@@H](CC(=O)O)C(=O)N[C@@H](CCCCN)C(=O)N[C@@H](CCCCNC(=O)COCCOCCNC(=O)COCCOCCNC(=O)CC[C@H](NC(=O)CCCCCCCCCCCCCCCCCCC(=O)O)C(=O)O)C(=O)N[C@@H](Cc1c[nH]cn1)C(=O)N[C@@H](CCC(N)=O)C(=O)NC(C)(C)C(=O)N[C@@H](CC(=O)O)C(=O)N[C@@H](Cc1ccccc1)C(=O)N[C@H](C(=O)N[C@@H](CCC(=O)O)C(=O)N[C@@H](Cc1ccc(O)cc1)C(=O)N[C@@H](CC(C)C)C(=O)N[C@@H](CC(C)C)C(=O)N[C@@H](CCC(=O)O)C(=O)N[C@@H](C)C(=O)NCC(=O)N1CCC[C@H]1C(=O)N[C@@H](CO)C(=O)N[C@@H](CO)C(=O)NCC(=O)N[C@@H](C)C(=O)N1CCC[C@H]1C(=O)N1CCC[C@H]1C(=O)N1CCC[C@H]1C(=O)N[C@@H](CO)C(N)=O)C(C)C)[C@@H](C)CC
B2: Example 72 (peptide)
peptide: Y[Aib]EGTLISDYSI[αMeL]LDKK([AEEA-AEEA-γGlu-C20 diacid])HQ[Aib]EFVEYLLETGPSSGAPPPS-NH2
modifications: N-terminus assumed
SMILES: CC[C@H](C)[C@H](NC(=O)[C@H](CC(C)C)NC(=O)[C@@H](NC(=O)CNC(=O)[C@H](CCC(=O)O)NC(=O)C(C)(C)NC(=O)[C@@H](N)Cc1ccc(O)cc1)[C@@H](C)O)C(=O)N[C@@H](CO)C(=O)N[C@@H](CC(=O)O)C(=O)N[C@@H](Cc1ccc(O)cc1)C(=O)N[C@@H](CO)C(=O)N[C@H](C(=O)N[C@@](C)(CC(C)C)C(=O)N[C@@H](CC(C)C)C(=O)N[C@@H](CC(=O)O)C(=O)N[C@@H](CCCCN)C(=O)N[C@@H](CCCCNC(=O)COCCOCCNC(=O)COCCOCCNC(=O)CC[C@H](NC(=O)CCCCCCCCCCCCCCCCCCC(=O)O)C(=O)O)C(=O)N[C@@H](Cc1c[nH]cn1)C(=O)N[C@@H](CCC(N)=O)C(=O)NC(C)(C)C(=O)N[C@@H](CCC(=O)O)C(=O)N[C@@H](Cc1ccccc1)C(=O)N[C@H](C(=O)N[C@@H](CCC(=O)O)C(=O)N[C@@H](Cc1ccc(O)cc1)C(=O)N[C@@H](CC(C)C)C(=O)N[C@@H](CC(C)C)C(=O)N[C@@H](CCC(=O)O)C(=O)N[C@H](C(=O)NCC(=O)N1CCC[C@H]1C(=O)N[C@@H](CO)C(=O)N[C@@H](CO)C(=O)NCC(=O)N[C@@H](C)C(=O)N1CCC[C@H]1C(=O)N1CCC[C@H]1C(=O)N1CCC[C@H]1C(=O)N[C@@H](CO)C(N)=O)[C@@H](C)O)C(C)C)[C@@H](C)CC
B3: Example 71 (peptide)
peptide: Y[Aib]EGTFISDYSI[αMeL]LDKK([AEEA-AEEA-γGlu-C20 diacid])HQ[Aib]DFVEWLLETGPSSGAPPPS-NH2
modifications: N-terminus assumed
SMILES: CC[C@H](C)[C@H](NC(=O)[C@H](Cc1ccccc1)NC(=O)[C@@H](NC(=O)CNC(=O)[C@H](CCC(=O)O)NC(=O)C(C)(C)NC(=O)[C@@H](N)Cc1ccc(O)cc1)[C@@H](C)O)C(=O)N[C@@H](CO)C(=O)N[C@@H](CC(=O)O)C(=O)N[C@@H](Cc1ccc(O)cc1)C(=O)N[C@@H](CO)C(=O)N[C@H](C(=O)N[C@@](C)(CC(C)C)C(=O)N[C@@H](CC(C)C)C(=O)N[C@@H](CC(=O)O)C(=O)N[C@@H](CCCCN)C(=O)N[C@@H](CCCCNC(=O)COCCOCCNC(=O)COCCOCCNC(=O)CC[C@H](NC(=O)CCCCCCCCCCCCCCCCCCC(=O)O)C(=O)O)C(=O)N[C@@H](Cc1c[nH]cn1)C(=O)N[C@@H](CCC(N)=O)C(=O)NC(C)(C)C(=O)N[C@@H](CC(=O)O)C(=O)N[C@@H](Cc1ccccc1)C(=O)N[C@H](C(=O)N[C@@H](CCC(=O)O)C(=O)N[C@@H](Cc1c[nH]c2ccccc12)C(=O)N[C@@H](CC(C)C)C(=O)N[C@@H](CC(C)C)C(=O)N[C@@H](CCC(=O)O)C(=O)N[C@H](C(=O)NCC(=O)N1CCC[C@H]1C(=O)N[C@@H](CO)C(=O)N[C@@H](CO)C(=O)NCC(=O)N[C@@H](C)C(=O)N1CCC[C@H]1C(=O)N1CCC[C@H]1C(=O)N1CCC[C@H]1C(=O)N[C@@H](CO)C(N)=O)[C@@H](C)O)C(C)C)[C@@H](C)CC
B4: Example 73 (peptide)
peptide: Y[Aib]EGTLISDYSI[αMeL]LDKK([AEEA-AEEA-γGlu-C20 diacid])HQ[Aib]EFVEYLLEGGPSSGAPPPS-NH2
modifications: N-terminus assumed
SMILES: CC[C@H](C)[C@H](NC(=O)[C@H](CC(C)C)NC(=O)[C@@H](NC(=O)CNC(=O)[C@H](CCC(=O)O)NC(=O)C(C)(C)NC(=O)[C@@H](N)Cc1ccc(O)cc1)[C@@H](C)O)C(=O)N[C@@H](CO)C(=O)N[C@@H](CC(=O)O)C(=O)N[C@@H](Cc1ccc(O)cc1)C(=O)N[C@@H](CO)C(=O)N[C@H](C(=O)N[C@@](C)(CC(C)C)C(=O)N[C@@H](CC(C)C)C(=O)N[C@@H](CC(=O)O)C(=O)N[C@@H](CCCCN)C(=O)N[C@@H](CCCCNC(=O)COCCOCCNC(=O)COCCOCCNC(=O)CC[C@H](NC(=O)CCCCCCCCCCCCCCCCCCC(=O)O)C(=O)O)C(=O)N[C@@H](Cc1c[nH]cn1)C(=O)N[C@@H](CCC(N)=O)C(=O)NC(C)(C)C(=O)N[C@@H](CCC(=O)O)C(=O)N[C@@H](Cc1ccccc1)C(=O)N[C@H](C(=O)N[C@@H](CCC(=O)O)C(=O)N[C@@H](Cc1ccc(O)cc1)C(=O)N[C@@H](CC(C)C)C(=O)N[C@@H](CC(C)C)C(=O)N[C@@H](CCC(=O)O)C(=O)NCC(=O)NCC(=O)N1CCC[C@H]1C(=O)N[C@@H](CO)C(=O)N[C@@H](CO)C(=O)NCC(=O)N[C@@H](C)C(=O)N1CCC[C@H]1C(=O)N1CCC[C@H]1C(=O)N1CCC[C@H]1C(=O)N[C@@H](CO)C(N)=O)C(C)C)[C@@H](C)CC
B5: Example 76 (peptide)
peptide: YXEGTXISDYSIXLDXKHQXDFVEXLLEGGPSSGAPPPS
modifications: Aib2; Iva6; αMeL13; Orn16; K17((2-[2-(2-Amino-ethoxy)-ethoxy]-acetyl)2-(γ-Glu)-CO-(CH2)18-CO2H); Aib20; 4-Pal25; C-terminal amide
B6: Example 56 (peptide)
peptide: Y[Aib]EGTFISDYSI[αMeL]LDKK([AEEA-AEEA-γGlu-C20 diacid])HQ[Aib]D[αMeF]VE[4Pal]LLAGGPSSGAPPPS-NH2
modifications: N-terminus assumed
SMILES: CC[C@H](C)[C@H](NC(=O)[C@H](Cc1ccccc1)NC(=O)[C@@H](NC(=O)CNC(=O)[C@H](CCC(=O)O)NC(=O)C(C)(C)NC(=O)[C@@H](N)Cc1ccc(O)cc1)[C@@H](C)O)C(=O)N[C@@H](CO)C(=O)N[C@@H](CC(=O)O)C(=O)N[C@@H](Cc1ccc(O)cc1)C(=O)N[C@@H](CO)C(=O)N[C@H](C(=O)N[C@@](C)(CC(C)C)C(=O)N[C@@H](CC(C)C)C(=O)N[C@@H](CC(=O)O)C(=O)N[C@@H](CCCCN)C(=O)N[C@@H](CCCCNC(=O)COCCOCCNC(=O)COCCOCCNC(=O)CC[C@H](NC(=O)CCCCCCCCCCCCCCCCCCC(=O)O)C(=O)O)C(=O)N[C@@H](Cc1c[nH]cn1)C(=O)N[C@@H](CCC(N)=O)C(=O)NC(C)(C)C(=O)N[C@@H](CC(=O)O)C(=O)N[C@@](C)(Cc1ccccc1)C(=O)N[C@H](C(=O)N[C@@H](CCC(=O)O)C(=O)N[C@@H](Cc1ccncc1)C(=O)N[C@@H](CC(C)C)C(=O)N[C@@H](CC(C)C)C(=O)N[C@@H](C)C(=O)NCC(=O)NCC(=O)N1CCC[C@H]1C(=O)N[C@@H](CO)C(=O)N[C@@H](CO)C(=O)NCC(=O)N[C@@H](C)C(=O)N1CCC[C@H]1C(=O)N1CCC[C@H]1C(=O)N1CCC[C@H]1C(=O)N[C@@H](CO)C(N)=O)C(C)C)[C@@H](C)CC

These results are taken from patent publication US20210032299A1 (Eli Lilly, published 2021).

Starred links: 1 amine or outer side, 2 acyl side, 3 side chain; linkers in the order of their positions; H or OH if unused. Non-standard residues stand in square brackets, D forms with d. Groups on a side chain read outwards from the residue. No end group written: not given here. *: point of attachment. C20 diacid = O=C(O)CCCCCCCCCCCCCCCCCCC(=O)*; γGlu = O=C(O)[C@H](CCC(=O)[*:2])N[*:1]; αMeF = C[C@](N)(Cc1ccccc1)C(=O)O; 4Pal = N[C@@H](Cc1ccncc1)C(=O)O; αMeL = CC(C)C[C@](C)(N)C(=O)O; AEEA = NCCOCCOCC(=O)O; Aib = CC(C)(N)C(=O)O

T2 sequence (P47871 26-477): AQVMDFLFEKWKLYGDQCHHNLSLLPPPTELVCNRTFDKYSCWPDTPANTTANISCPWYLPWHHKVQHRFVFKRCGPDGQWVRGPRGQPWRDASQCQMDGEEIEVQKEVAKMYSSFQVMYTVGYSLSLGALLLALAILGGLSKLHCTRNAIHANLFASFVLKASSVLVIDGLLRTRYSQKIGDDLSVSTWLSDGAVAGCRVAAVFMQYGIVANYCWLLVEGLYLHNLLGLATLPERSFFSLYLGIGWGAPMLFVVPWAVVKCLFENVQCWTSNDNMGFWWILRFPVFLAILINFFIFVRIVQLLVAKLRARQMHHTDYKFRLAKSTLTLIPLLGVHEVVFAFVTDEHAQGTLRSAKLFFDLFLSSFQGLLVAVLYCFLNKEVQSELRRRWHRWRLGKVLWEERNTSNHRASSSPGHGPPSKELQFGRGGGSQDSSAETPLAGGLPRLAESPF

For the first experiment, the target named is T1, human glucose-dependent insulinotropic polypeptide (GIP) receptor (human, UniProt P48546 22-466).
T1 construct: whole, on cells; Assayed as crude membranes of stably transfected CHO cells; also called hGIPR; human GIP receptor
T1 sequence (looked up): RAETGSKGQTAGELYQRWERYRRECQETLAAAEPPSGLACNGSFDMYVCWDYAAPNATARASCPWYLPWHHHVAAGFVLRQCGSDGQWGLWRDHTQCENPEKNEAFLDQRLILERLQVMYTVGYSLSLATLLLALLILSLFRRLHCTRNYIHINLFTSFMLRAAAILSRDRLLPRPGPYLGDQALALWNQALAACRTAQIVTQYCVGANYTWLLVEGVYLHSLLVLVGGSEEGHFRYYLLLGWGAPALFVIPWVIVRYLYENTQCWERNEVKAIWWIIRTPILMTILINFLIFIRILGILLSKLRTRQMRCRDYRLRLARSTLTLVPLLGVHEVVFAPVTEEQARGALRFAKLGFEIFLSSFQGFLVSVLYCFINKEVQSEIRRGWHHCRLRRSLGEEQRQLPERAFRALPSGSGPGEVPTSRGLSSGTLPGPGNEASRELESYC
Nature of the experiment: SPA, displacement of [125I]-GIP from hGIPR membranes, 0.1% bacitracin. In general terms: Loss of bound radioactivity is the signal in a displacement assay; it reports binding, not function.
Take B1: the Ki (in general, the dissociation constant of the complex between target and ligand, obtained from inhibition or displacement) came to 0.0948 nM.
Regarding B2, the affinity, expressed as Ki, was 0.0594 nM.
The molecule B3 returned a Ki of 0.0422 nM.
On the same count and under the same terms, the result for B4 reads 0.036 nM; that for B5, 0.0293 nM; that for B6, 0.0487 nM.

A further experiment concerns the target T2, human glucagon receptor (human, UniProt P47871 26-477).
T2 construct: whole, on cells; Assayed as crude membranes of stably transfected HEK293 cells; also called hGcgR; GcgR
Briefly: SPA, displacement of [125I]-Gcg from hGcgR membranes, 0.1% bacitracin. The method, boiled down:
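Binding buffer: 25 mM HEPES pH 7.4, 2.5 mM CaCl₂, 1 mM MgCl₂, 0.003% Tween-20, protease inhibitors without EDTA. Counted by scintillation after 12 h incubation/settling at room temperature. Four-parameter nonlinear fit; Kᵢ given as geometric mean ± SEM of independent replicates run on different days.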
With B1, the inhibition constant (Ki) came to 290 nM. This counts as sub-micromolar.
The same measure, in the same setting: the result for B2 reads 837 nM.
Molecule B3 returned an inhibition constant Ki of 102 nM.
On to B4, for which the affinity corresponds to a Ki of 292 nM.
Still for that read-out and setting: with B5 the figure was 358 nM; with B6, 193 nM.

A further experiment addresses T3, human GLP-1 receptor (human, UniProt P43220 24-463).
T3 construct: whole, on cells; Assayed as crude membranes of stably transfected HEK293 cells; also called hGLP1R; hGLP-1R
Nature of the experiment: SPA, displacement of [125I]-GLP-1 from hGLP-1R membranes, 0.1% bacitracin. The method, boiled down:
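Binding buffer: 25 mM HEPES pH 7.4, 2.5 mM CaCl₂, 1 mM MgCl₂, 0.1% bacitracin, 0.003% Tween-20, protease inhibitors without EDTA. Four-parameter nonlinear regression; Kᵢ given as geometric mean ± SEM, n = independent replicates run on different days.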
As to B1, the inhibition constant (Ki) worked out at 421 nM. This counts as sub-micromolar.
Molecule B2 displayed an inhibition constant Ki of 437 nM.
B3 showed a Ki of 347 nM.
B4 returned a Ki of 117 nM.
In turn, B5 showed a Ki of 263 nM.
Same read-out and setting: the result for B6 reads 530 nM.
